How the values were obtained:
Experiment in all cases: BLI; His-tagged NB7 (500 nM) immobilised on Anti-Penta-His biosensor, dipped into PI3K in solution; dose response 50-1.9 nM for p110γ, p110γ-p84, p110γ-p101; 50 nM for the class IA comparison; 25 nM for phosphorylated and non-phosphorylated p110γ; Octet buffer 20 mM Tris pH 8.5, 100 mM NaCl, 50 mM ammonium sulfate, 0.1% BSA, 0.02% Tween 20; global fit to a 1:1 model
Conditions in all cases: both partners purified
[1] = molecular target: T1, p110γ-p101 complex (human p110γ, porcine p101) (Homo sapiens p110γ; Sus scrofa p101, UniProt P48736;O02696)
T1 construct: p110γ catalytic subunit, human; plasmid pMultiBac-hsp110γ-ssp101 (MR22); full length p110γ in the p110γ-p101 model PDB 7MEZ; p101 regulatory subunit of PI3Kγ, Sus scrofa; The tag stood on p101 for purification and was cleaved by TEV on the column; also called p110/p101; not shown: 10xHis, N-terminal, cleaved; 2xStrep, N-terminal, cleaved

[2] = molecular target: T2, p110γ-p84 complex (human p110γ, mouse p84) (Homo sapiens p110γ; Mus musculus p84, UniProt P48736;Q3U6Q4)
T2 construct: p110γ catalytic subunit, human; plasmid pMultiBac-hsp110γ-mmp84 (MR24); p84 regulatory subunit of PI3Kγ, Mus musculus; The tag stood on p84 for purification and was cleaved by TEV on the column; also called p110/p84; not shown: 10xHis, N-terminal, cleaved; 2xStrep, N-terminal, cleaved

p110α-p85α complex = molecular target: T3, p110α-p85α complex (Homo sapiens (assumed), UniProt P42336;P27986)
T3 construct: p110α class IA PI3K catalytic subunit; plasmid pFASTBac p110α (pOV1181); p85α class IA regulatory subunit; Plasmids as described in Dornan et al., 2017 and Siempelkamp et al., 2017; also called PI3Kα; source: PI3Kα gel filtration buffer

p110δ-p85β complex = molecular target: T4, p110δ-p85β complex (Homo sapiens (assumed), UniProt O00329;O00459)
T4 construct: p110δ class IA PI3K catalytic subunit; plasmid pFASTBac p110δ (pOV1183); p85β class IA regulatory subunit; also called PI3Kδ; source: PI3Kα gel filtration buffer

p110β-p85β complex = molecular target: T5, p110β-p85β complex (Homo sapiens (assumed), UniProt P42338;O00459)
T5 construct: p110β class IA PI3K catalytic subunit; plasmid pFASTBac p110β (pOV1182); p85β class IA regulatory subunit; also called PI3Kβ; source: PI3Kα gel filtration buffer

T3 sequence (P42336 whole entry, chain 1 of 2): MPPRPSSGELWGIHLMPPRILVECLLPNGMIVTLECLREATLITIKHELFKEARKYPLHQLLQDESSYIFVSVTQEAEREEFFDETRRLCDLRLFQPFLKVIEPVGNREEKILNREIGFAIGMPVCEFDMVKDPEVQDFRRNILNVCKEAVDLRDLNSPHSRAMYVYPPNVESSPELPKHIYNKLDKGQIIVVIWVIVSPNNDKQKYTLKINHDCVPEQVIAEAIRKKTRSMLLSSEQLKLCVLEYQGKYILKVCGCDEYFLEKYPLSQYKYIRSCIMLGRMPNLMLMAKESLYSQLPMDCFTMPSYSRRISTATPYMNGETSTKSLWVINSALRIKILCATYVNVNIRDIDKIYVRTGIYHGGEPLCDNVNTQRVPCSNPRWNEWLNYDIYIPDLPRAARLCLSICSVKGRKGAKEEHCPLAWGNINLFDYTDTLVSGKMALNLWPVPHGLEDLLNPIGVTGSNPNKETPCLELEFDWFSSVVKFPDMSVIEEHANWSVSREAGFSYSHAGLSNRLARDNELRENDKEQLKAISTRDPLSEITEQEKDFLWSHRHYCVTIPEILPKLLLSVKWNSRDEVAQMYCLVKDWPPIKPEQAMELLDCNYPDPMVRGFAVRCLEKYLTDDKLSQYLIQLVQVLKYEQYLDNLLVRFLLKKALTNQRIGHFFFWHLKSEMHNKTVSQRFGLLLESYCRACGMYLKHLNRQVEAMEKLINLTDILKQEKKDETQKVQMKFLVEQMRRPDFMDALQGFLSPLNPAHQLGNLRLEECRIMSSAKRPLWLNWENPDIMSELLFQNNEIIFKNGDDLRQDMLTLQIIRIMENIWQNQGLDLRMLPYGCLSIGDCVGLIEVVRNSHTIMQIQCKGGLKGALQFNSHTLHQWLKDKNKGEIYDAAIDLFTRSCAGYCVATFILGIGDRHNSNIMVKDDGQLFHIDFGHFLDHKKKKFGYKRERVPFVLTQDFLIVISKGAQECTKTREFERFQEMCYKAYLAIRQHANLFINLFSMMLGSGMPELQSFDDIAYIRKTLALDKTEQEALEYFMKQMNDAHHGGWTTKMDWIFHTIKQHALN
T3 sequence (P27986 whole entry, chain 2 of 2): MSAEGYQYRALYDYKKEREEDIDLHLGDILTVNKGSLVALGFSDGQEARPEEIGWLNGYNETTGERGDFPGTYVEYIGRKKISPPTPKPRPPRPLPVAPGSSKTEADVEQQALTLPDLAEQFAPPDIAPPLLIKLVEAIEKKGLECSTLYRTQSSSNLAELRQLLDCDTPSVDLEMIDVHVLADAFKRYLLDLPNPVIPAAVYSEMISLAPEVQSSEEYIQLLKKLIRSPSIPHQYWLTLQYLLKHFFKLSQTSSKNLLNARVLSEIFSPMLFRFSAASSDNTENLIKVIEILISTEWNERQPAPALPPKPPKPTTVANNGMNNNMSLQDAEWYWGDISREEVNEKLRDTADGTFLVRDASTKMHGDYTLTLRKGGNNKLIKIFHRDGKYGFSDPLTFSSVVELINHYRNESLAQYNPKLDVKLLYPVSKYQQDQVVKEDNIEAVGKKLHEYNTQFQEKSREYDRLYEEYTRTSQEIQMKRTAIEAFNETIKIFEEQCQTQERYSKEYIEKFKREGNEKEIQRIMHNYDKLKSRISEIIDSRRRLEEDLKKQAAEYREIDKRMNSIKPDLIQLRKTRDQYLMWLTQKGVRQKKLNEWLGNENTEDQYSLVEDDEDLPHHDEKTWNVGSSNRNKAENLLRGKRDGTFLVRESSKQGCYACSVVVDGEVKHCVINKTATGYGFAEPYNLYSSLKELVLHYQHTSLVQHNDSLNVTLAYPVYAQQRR
T2 sequence (P48736 whole entry, chain 1 of 2): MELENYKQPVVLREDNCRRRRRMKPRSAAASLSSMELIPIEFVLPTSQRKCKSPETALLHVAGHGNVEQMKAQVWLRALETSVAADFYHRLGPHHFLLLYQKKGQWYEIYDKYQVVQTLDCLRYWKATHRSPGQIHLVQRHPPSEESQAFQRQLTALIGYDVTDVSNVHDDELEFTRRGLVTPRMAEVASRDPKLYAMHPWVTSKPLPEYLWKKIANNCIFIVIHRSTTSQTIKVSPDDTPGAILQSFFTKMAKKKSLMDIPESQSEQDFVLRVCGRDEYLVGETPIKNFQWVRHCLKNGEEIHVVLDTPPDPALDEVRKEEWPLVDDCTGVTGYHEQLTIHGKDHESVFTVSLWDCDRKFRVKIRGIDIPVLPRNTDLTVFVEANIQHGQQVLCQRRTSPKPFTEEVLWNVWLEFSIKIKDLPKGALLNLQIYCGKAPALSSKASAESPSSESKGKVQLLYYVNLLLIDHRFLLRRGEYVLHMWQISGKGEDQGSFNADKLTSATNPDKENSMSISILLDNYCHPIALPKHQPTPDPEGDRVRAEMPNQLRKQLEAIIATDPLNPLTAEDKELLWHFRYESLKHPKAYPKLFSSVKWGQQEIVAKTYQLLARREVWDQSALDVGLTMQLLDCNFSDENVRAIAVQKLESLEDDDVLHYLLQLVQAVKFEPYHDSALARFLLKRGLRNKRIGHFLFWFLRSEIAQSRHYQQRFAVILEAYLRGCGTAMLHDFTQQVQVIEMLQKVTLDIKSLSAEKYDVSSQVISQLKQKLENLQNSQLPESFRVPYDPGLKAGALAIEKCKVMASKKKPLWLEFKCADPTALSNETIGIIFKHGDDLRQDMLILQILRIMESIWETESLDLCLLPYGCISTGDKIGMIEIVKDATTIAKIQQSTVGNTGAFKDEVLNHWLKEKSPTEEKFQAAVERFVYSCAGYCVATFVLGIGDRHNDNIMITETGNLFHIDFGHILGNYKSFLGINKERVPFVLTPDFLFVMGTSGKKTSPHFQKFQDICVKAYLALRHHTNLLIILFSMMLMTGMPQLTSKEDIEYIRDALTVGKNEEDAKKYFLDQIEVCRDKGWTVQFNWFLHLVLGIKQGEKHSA
T2 sequence (Q3U6Q4 whole entry, chain 2 of 2): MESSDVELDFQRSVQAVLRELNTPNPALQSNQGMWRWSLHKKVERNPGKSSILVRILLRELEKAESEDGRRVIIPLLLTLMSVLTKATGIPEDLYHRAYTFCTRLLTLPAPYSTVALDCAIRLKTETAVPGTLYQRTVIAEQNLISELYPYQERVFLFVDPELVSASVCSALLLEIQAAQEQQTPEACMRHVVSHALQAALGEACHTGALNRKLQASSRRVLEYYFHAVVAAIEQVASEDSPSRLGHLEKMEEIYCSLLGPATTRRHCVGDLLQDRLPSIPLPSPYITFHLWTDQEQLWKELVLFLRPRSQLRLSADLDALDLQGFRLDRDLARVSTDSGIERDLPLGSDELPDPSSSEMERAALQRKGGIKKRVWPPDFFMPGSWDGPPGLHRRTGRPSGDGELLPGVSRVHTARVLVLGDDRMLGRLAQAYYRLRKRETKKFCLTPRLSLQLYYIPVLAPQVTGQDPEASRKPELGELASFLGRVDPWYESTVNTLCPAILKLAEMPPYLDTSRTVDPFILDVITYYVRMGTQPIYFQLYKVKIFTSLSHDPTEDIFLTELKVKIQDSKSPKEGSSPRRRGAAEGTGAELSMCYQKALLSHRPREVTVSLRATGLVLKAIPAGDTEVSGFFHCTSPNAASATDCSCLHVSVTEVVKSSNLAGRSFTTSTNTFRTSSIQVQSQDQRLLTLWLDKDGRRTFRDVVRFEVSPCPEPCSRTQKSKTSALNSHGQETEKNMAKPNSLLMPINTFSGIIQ
T1 sequence (P48736 whole entry, chain 1 of 2): as the sequence (P48736 whole entry, chain 1 of 2) above
T1 sequence (O02696 whole entry, chain 2 of 2): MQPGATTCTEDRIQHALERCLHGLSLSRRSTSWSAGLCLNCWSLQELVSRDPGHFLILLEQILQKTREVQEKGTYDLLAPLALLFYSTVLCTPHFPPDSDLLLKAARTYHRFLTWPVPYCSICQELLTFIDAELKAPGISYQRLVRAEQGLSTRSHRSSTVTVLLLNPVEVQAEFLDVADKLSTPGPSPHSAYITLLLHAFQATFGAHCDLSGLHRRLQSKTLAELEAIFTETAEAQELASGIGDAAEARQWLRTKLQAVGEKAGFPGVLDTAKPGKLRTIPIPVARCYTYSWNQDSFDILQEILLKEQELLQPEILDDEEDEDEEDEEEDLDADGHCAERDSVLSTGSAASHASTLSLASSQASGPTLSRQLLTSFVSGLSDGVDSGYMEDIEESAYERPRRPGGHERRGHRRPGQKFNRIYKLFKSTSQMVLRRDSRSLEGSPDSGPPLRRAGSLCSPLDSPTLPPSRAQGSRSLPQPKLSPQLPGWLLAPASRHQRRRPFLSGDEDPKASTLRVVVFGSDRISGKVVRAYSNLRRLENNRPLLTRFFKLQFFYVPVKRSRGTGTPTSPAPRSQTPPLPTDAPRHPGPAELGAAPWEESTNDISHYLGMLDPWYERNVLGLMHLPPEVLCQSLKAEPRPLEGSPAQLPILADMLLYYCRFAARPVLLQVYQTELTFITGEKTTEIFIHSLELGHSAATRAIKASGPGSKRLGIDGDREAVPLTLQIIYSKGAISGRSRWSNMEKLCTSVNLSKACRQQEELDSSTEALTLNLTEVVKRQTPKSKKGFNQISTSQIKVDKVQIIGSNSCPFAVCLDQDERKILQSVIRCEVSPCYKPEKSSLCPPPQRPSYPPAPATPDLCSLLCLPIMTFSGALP

B1: Nanobody NB7-PIK3CG (VHH)
VHH: QVQLVESGGGLVQPGGSLRLSCAASGSIFSINAMGWYRQAPGKQRELVAHITSGGSTNYADSVKGRFTISRDNAKNTVYLQMNSLKPEDTAVYYCNEAGDPFLGSTWNGPPAFGSWGQGTQVTVSS
notes: Identified earlier (Rathinaswamy et al., 2021b); also called His-NB7; nanobody 7; source: E. coli WK6 periplasm (pMESy4 vector), purified (Ni-NTA, SEC); not shown: His6, C-terminal, kept
- Kd [1]: ~2 nM
- Kd [2]: ~2 nM
- binding result (p110α-p85α complex): no binding (tested: 50 nM)
- binding result (p110δ-p85β complex): no binding (tested: 50 nM)
- binding result (p110β-p85β complex): no binding (tested: 50 nM)
